Data reported in US20050123546A1 (Hoffmann-La Roche, published 2005).

B1: chimeric B-Ly1 antibody chB-Ly1 (antibody, V domains shown)
VH: EVKLQQSGPELVKPGASVKISCKASGYAFSYSWMNWVKLRPGQGLEWIGRIFPGDGDTDYNGKFKGKATLTADKSSNTAYMQLTSLTSVDSAVYLCARNVFDGYWLVYWGQGTLVTVSA
VL: DIVLTQTTNPVTLGTSASISCRSSKSLLHSNGITYLYWYLQKPGQSPQLLIYQMSNLVSGVPDRFSSSGSGTDFTLRISRVEAEDVGVYYCAQNLELPYTFGGGTKLEIKR
notes: also called parental antibody B-Ly1; copies: 2 + 2
B2: B-HH1 complexed with the humanized B-Ly1 light chain (KV1) (antibody, human IgG1, V domains shown)
VH: QVQLVQSGAEVKKPGSSVKVSCKASGYTFSYSWMSWVRQAPGQGLEWMGRIFPGDGDTDYAQKFQGRVTITADKSTSTAYMELSSLRSEDTAVYYCARNVFDGYWLVYWGQGTLVTVSS
VL: DIVMTQTPLSLPVTPGEPASISCRSSKSLLHSNGITYLYWYLQKPGQSPQLLIYQMSNLVSGVPDRFSGSGSGTDFTLKISRVEAEDVGVYYCAQNLELPYTFGGGTKVEIKR
notes: also called BHH1-KV1
B3: BHL11-KV1 (antibody, human IgG1, V domains shown)
VH: QVQLVESGGGLVKPGGSLRLSCAASGFTFSYSWMNWVRQAPGKGLEWVGRIFPGDGDTDYNGKFKGRVTITADKSTSTAYMELSSLRSEDTAVYYCARNVFDGYWLVYWGQGTLVTVSS
VL: DIVMTQTPLSLPVTPGEPASISCRSSKSLLHSNGITYLYWYLQKPGQSPQLLIYQMSNLVSGVPDRFSGSGSGTDFTLKISRVEAEDVGVYYCAQNLELPYTFGGGTKVEIKR
notes: B-HL8 with the single mutation Glu1Gln
B4: B-HH1 (as compared in FIG. 12; light chain not stated) (antibody, V domains shown)
VH: QVQLVQSGAEVKKPGSSVKVSCKASGYTFSYSWMSWVRQAPGQGLEWMGRIFPGDGDTDYAQKFQGRVTITADKSTSTAYMELSSLRSEDTAVYYCARNVFDGYWLVYWGQGTLVTVSS
VL: DIVMTQTPLSLPVTPGEPASISCRSSKSLLHSNGITYLYWYLQKPGQSPQLLIYQMSNLVSGVPDRFSGSGSGTDFTLKISRVEAEDVGVYYCAQNLELPYTFGGGTKVEIK
B5: BHH2-KV1 humanized IgG1 B-Ly1 anti-human CD20 antibody (non-glycoengineered) (antibody, V domains shown)
VH: QVQLVQSGAEVKKPGSSVKVSCKASGYAFSYSWMNWVRQAPGQGLEWMGRIFPGDGDTDYNGKFKGRVTITADKSTSTAYMELSSLRSEDTAVYYCARNVFDGYWLVYWGQGTLVTVSS
VL: DIVMTQTPLSLPVTPGEPASISCRSSKSLLHSNGITYLYWYLQKPGQSPQLLIYQMSNLVSGVPDRFSGSGSGTDFTLKISRVEAEDVGVYYCAQNLELPYTFGGGTKVEIKR
notes: also called BHH2-KV1-wt
B6: B-HH3 complexed with the humanized B-Ly1 light chain (KV1) (antibody, human IgG1, V domains shown)
VH: QVQLVQSGAEVKKPGSSVKVSCKASGYAFSYSWMNWVRQAPGQGLEWMGRIFPGDGDTDYNGKFKGRVTITADKSTSTAYMELSSLRSEDTAVYLCARNVFDGYWLVYWGQGTLVTVSS
VL: DIVMTQTPLSLPVTPGEPASISCRSSKSLLHSNGITYLYWYLQKPGQSPQLLIYQMSNLVSGVPDRFSGSGSGTDFTLKISRVEAEDVGVYYCAQNLELPYTFGGGTKVEIKR
notes: also called BHH3-KV1
B7: BHL8-KV1 (antibody, human IgG1, V domains shown)
VH: EVQLVESGGGLVKPGGSLRLSCAASGFTFSYSWMNWVRQAPGKGLEWVGRIFPGDGDTDYNGKFKGRVTITADKSTSTAYMELSSLRSEDTAVYYCARNVFDGYWLVYWGQGTLVTVSS
VL: DIVMTQTPLSLPVTPGEPASISCRSSKSLLHSNGITYLYWYLQKPGQSPQLLIYQMSNLVSGVPDRFSGSGSGTDFTLKISRVEAEDVGVYYCAQNLELPYTFGGGTKVEIKR

Molecular target: T1, human CD20 (human, UniProt P11836 1-297)
T1 construct: whole, on cells; also called human CD20 antigen; Bp35
T1 sequence (looked up): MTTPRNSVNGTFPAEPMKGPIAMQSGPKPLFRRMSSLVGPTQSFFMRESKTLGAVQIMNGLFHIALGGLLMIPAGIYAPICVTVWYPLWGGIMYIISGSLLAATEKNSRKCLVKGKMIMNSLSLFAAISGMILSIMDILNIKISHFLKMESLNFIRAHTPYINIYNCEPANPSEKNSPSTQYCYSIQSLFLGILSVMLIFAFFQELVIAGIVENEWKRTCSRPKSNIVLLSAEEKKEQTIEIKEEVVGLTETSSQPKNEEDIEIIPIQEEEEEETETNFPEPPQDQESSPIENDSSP
Experiment: flow cytometry on Raji cells
Protocol: 500.000 in 180 μl FACS buffer (PBS containing 2% FCS and 5 mM EDTA) were transferred to 5 ml polystyrene tubes and 20 ul 10 fold concentrated anti-CD20 antibody samples (1-5000 ng/ml final concentration) or PBS only were added and the tubes were incubated at 4° C. for 30 min. Subsequently, samples were washed twice with FACS buffer and pelleted at 300×g for 3 min. Supernatant was aspirated off and cells were taken up in 100 μl FACS buffer and 1 μl anti-Fc-specific F(ab′)₂—FITC fragments (Jackson Immuno Research Laboratories, USA) was added and the tubes were incubated at 4° C. for 30 min. Samples were washed twice with FACS buffer and taken up in 500 μl of FACS buffer containing 0.5 μg/ml PI for analysis by Flow Cytometry. Binding was determined by plotting the geometric mean fluorescence against the antibody concentrations.

binding result | binding intensity/stoichiometry compared to B-Ly1 | Binder
binds | – | B1
binds | – | B2
binds | – | B3
– | ~0.5 fold of chB-Ly1 | B4
binds | – | B5
binds | – | B6
binds | – | B7
